Sequences and labels used below:
B1: FCHO1 (parent)
chain: FTSSPSPFSSSSPENVEDSGLDSP
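Further: lentivirally expressed fusions sorted by FACS into six bins by GFP to DsRed ratio, PSI derived from sequencing read proportions per bin multiplied by bin number.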

In this data set the parent is B1. In words: protein stability index of a GFP-peptide fusion (GPS, HEK-293T) (PSI 1-6); higher = more stable. The settings on record: c terminus: a fixed tail appended.
With FTSSVSPFSSSSPENVEDSGLDSP [P5V], the protein stability index was found to be 2.17.

In the case of FTSSWSPFSSSSPENVEDSGLDSP [P5W], the protein stability index stood at 1.87. To FTSSPSPFSISSPENVEDSGLDSP [S10I] belongs 2.7. In the case of FTSSPSPFSLSSPENVEDSGLDSP [S10L] it was 1.71; in that of FTSSPSPFSPSSPENVEDSGLDSP [S10P], 2.3. For FTSSPSPFSVSSPENVEDSGLDSP [S10V], the protein stability index is 2.06. As for FTSSPSPFSESSPENVEDSGLDSP [S10E], the protein stability index is 2.05. With FTSSPSPFSHSSPENVEDSGLDSP [S10H], the protein stability index is 2. For FTSSPSPFSMSSPENVEDSGLDSP [S10M], the protein stability index was 1.94. In the case of FTSSPSPFSNSSPENVEDSGLDSP [S10N] it was 2.3; in that of FTSSPSPFSGSSPENVEDSGLDSP [S10G], 2.02. With FTSSPSPFSTSSPENVEDSGLDSP [S10T], the protein stability index is 2.15. As for FTSSPSPFSQSSPENVEDSGLDSP [S10Q], the protein stability index is 1.92. Regarding FTSSPSPFSDSSPENVEDSGLDSP [S10D], the protein stability index turned out to be 1.93.

For the variant FTSSPSPFSKSSPENVEDSGLDSP [S10K], the protein stability index stood at 1.88.

With FTSSPSPFSCSSPENVEDSGLDSP [S10C], the protein stability index worked out at 2.14. To FTSSPSPFSASSPENVEDSGLDSP [S10A] belongs 2.53; to FTSSPSPFSFSSPENVEDSGLDSP [S10F], 2.09; to FTSSPSPFSYSSPENVEDSGLDSP [S10Y], 2.07. In the case of FTSSPSPFSRSSPENVEDSGLDSP [S10R], the protein stability index was determined as 2.56. To FTSSPSPFSWSSPENVEDSGLDSP [S10W] belongs 2.7.

Take FTSSPSPFSSSSPFNVEDSGLDSP [E14F]: the protein stability index was determined as 1.64. Regarding FTSSPSPFSSSSPLNVEDSGLDSP [E14L], the protein stability index amounted to 2.22. To FTSSPSPFSSSSPTNVEDSGLDSP [E14T] belongs 1.84. On to FTSSPSPFSSSSPPNVEDSGLDSP [E14P], for which the protein stability index came to 1.94. To FTSSPSPFSSSSPRNVEDSGLDSP [E14R] belongs 1.61. On to FTSSPSPFSSSSPVNVEDSGLDSP [E14V], for which the protein stability index is 2.15. In the case of FTSSPSPFSSSSPHNVEDSGLDSP [E14H], the protein stability index was found to be 1.95. In the case of FTSSPSPFSSSSPWNVEDSGLDSP [E14W] it was 2.78; in that of FTSSPSPFSSSSPDNVEDSGLDSP [E14D], 2.4; in that of FTSSPSPFSSSSPSNVEDSGLDSP [E14S], 2.17. In the case of FTSSPSPFSSSSPQNVEDSGLDSP [E14Q], the protein stability index came out at 2.31. As to FTSSPSPFSSSSPGNVEDSGLDSP [E14G], the protein stability index is 1.92. FTSSPSPFSSSSPANVEDSGLDSP [E14A]: the protein stability index came to 1.96. Consider FTSSPSPFSSSSPKNVEDSGLDSP [E14K], for which the protein stability index amounted to 2.1. In the case of FTSSPSPFSSSSPNNVEDSGLDSP [E14N] it was 2.14; in that of FTSSPSPFSSSSPINVEDSGLDSP [E14I], 1.9. Regarding FTSSPSPFSSSSPCNVEDSGLDSP [E14C], the protein stability index came out at 1.69.

With FTSSPSPFSSSSPMNVEDSGLDSP [E14M], the protein stability index amounted to 2.05. On to FTSSPSPFSSSSPYNVEDSGLDSP [E14Y], for which the protein stability index stood at 1.72. Take FTSSPSPFSSKSPENVEDSGLDSP [S11K]: the protein stability index was 1.86.

Take FTSSPSPFSSQSPENVEDSGLDSP [S11Q]: the protein stability index is 2.06. Take FTSSPSPFSSVSPENVEDSGLDSP [S11V]: the protein stability index came to 1.77.

In the case of FTSSPSPFSSHSPENVEDSGLDSP [S11H], the protein stability index is 1.83. Turning to FTSSPSPFSSCSPENVEDSGLDSP [S11C], the protein stability index turned out to be 2.65. In the case of FTSSPSPFSSNSPENVEDSGLDSP [S11N], the protein stability index was determined as 1.55.

Turning to FTSSPSPFSSESPENVEDSGLDSP [S11E], the protein stability index amounted to 2.18. For the variant FTSSPSPFSSASPENVEDSGLDSP [S11A], the protein stability index came to 2.05. On to FTSSPSPFSSRSPENVEDSGLDSP [S11R], for which the protein stability index is 2.01.

With FTSSPSPFSSYSPENVEDSGLDSP [S11Y], the protein stability index was found to be 2.25. For FTSSPSPFSSDSPENVEDSGLDSP [S11D], the protein stability index was determined as 2.75.

For the variant FTSSPSPFSSLSPENVEDSGLDSP [S11L], the protein stability index was 1.63. Turning to FTSSPSPFSSWSPENVEDSGLDSP [S11W], the protein stability index was found to be 2.39. Regarding FTSSPSPFSSTSPENVEDSGLDSP [S11T], the protein stability index turned out to be 1.67. Consider FTSSPSPFSSGSPENVEDSGLDSP [S11G], for which the protein stability index turned out to be 1.33.

For FTSSPSPFSSFSPENVEDSGLDSP [S11F], the protein stability index was 1.62. Turning to FTSSPSPFSSPSPENVEDSGLDSP [S11P], the protein stability index was found to be 1.86.

Take FTSSPSPFSSMSPENVEDSGLDSP [S11M]: the protein stability index was 1.76.

For FTSSPSPFSSISPENVEDSGLDSP [S11I], the protein stability index came to 2.23. As to FTSSPSPFSSSSPEPVEDSGLDSP [N15P], the protein stability index is 2.95. Take FTSSPSPFSSSSPELVEDSGLDSP [N15L]: the protein stability index was 2.01. To FTSSPSPFSSSSPERVEDSGLDSP [N15R] belongs 1.71. On to FTSSPSPFSSSSPEAVEDSGLDSP [N15A], for which the protein stability index was found to be 2.13. Regarding FTSSPSPFSSSSPEGVEDSGLDSP [N15G], the protein stability index came to 1.64.

As to FTSSPSPFSSSSPETVEDSGLDSP [N15T], the protein stability index is 2.04. As to FTSSPSPFSSSSPECVEDSGLDSP [N15C], the protein stability index was found to be 2.24.

In the case of FTSSPSPFSSSSPEMVEDSGLDSP [N15M], the protein stability index was 2.57. As for FTSSPSPFSSSSPESVEDSGLDSP [N15S], the protein stability index is 2.33. On to FTSSPSPFSSSSPEEVEDSGLDSP [N15E], for which the protein stability index came to 1.82. In the case of FTSSPSPFSSSSPEHVEDSGLDSP [N15H], the protein stability index was 1.66.

For FTSSPSPFSSSSPEDVEDSGLDSP [N15D], the protein stability index is 2.25.

As for FTSSPSPFSSSSPEIVEDSGLDSP [N15I], the protein stability index was 2.05. Take FTSSPSPFSSSSPEFVEDSGLDSP [N15F]: the protein stability index came to 1.73. Regarding FTSSPSPFSSSSPEKVEDSGLDSP [N15K], the protein stability index was 1.43. To FTSSPSPFSSSSPEQVEDSGLDSP [N15Q] belongs 1.81. In the case of FTSSPSPFSSSSPEVVEDSGLDSP [N15V], the protein stability index turned out to be 2.46. In the case of FTSSPAPFSSSSPENVEDSGLDSP [S6A], the protein stability index stood at 2.37. Take FTSSPRPFSSSSPENVEDSGLDSP [S6R]: the protein stability index turned out to be 2.21. Consider FTSSPQPFSSSSPENVEDSGLDSP [S6Q], for which the protein stability index turned out to be 2.08. As for FTSSPDPFSSSSPENVEDSGLDSP [S6D], the protein stability index was determined as 3.29.

As to FTSSPGPFSSSSPENVEDSGLDSP [S6G], the protein stability index amounted to 2.02. In the case of FTSSPNPFSSSSPENVEDSGLDSP [S6N] it was 1.98.

In the case of FTSSPFPFSSSSPENVEDSGLDSP [S6F], the protein stability index was found to be 1.79.

For the variant FTSSPYPFSSSSPENVEDSGLDSP [S6Y], the protein stability index came to 2.19. On to FTSSPEPFSSSSPENVEDSGLDSP [S6E], for which the protein stability index was found to be 2.85. With FTSSPWPFSSSSPENVEDSGLDSP [S6W], the protein stability index was 2.44.

FTSSPHPFSSSSPENVEDSGLDSP [S6H]: the protein stability index worked out at 2.23. FTSSPKPFSSSSPENVEDSGLDSP [S6K]: the protein stability index was 2.67. Turning to FTSSPVPFSSSSPENVEDSGLDSP [S6V], the protein stability index was found to be 1.99.

Regarding FTSSPLPFSSSSPENVEDSGLDSP [S6L], the protein stability index came to 1.86.

Regarding FTSSPCPFSSSSPENVEDSGLDSP [S6C], the protein stability index stood at 2.18. Regarding FTSSPIPFSSSSPENVEDSGLDSP [S6I], the protein stability index came out at 2.22. In the case of FTSSPTPFSSSSPENVEDSGLDSP [S6T], the protein stability index worked out at 2.19.

Take FTSSPMPFSSSSPENVEDSGLDSP [S6M]: the protein stability index came to 1.83.

The values are drawn from the supplement of paper PMC10567573.
